Data taken from patent US20260193366A1 (APOGEE THERAPEUTICS, published 2026).
Where a chain is given by its changes, count along the chain named.

T1: human IL-4Rα (human, UniProt P24394 26-232)
T1 construct: also called Hu IL-4Rα; hIL-4Rα
T1 sequence: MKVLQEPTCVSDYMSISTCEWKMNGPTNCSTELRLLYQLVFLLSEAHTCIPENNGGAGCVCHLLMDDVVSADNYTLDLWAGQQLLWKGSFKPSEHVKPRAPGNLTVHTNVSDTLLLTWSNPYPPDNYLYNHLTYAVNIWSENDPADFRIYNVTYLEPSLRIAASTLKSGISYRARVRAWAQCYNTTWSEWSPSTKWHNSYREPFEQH

T2: cynomolgus monkey IL-4Rα (cynomolgus monkey, UniProt P24394 26-231 (human entry), limits assumed)
T2 construct: also called Cyno IL-4Rα; cyIL-4Rα
T2 chain: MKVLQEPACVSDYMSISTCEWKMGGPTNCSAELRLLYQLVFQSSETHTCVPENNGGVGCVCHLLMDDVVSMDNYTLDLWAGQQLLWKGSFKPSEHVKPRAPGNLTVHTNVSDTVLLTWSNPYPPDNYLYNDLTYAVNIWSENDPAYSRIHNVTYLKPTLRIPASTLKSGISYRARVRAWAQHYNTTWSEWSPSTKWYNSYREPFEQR

T3: hIL-4Rα on cells (human, UniProt P24394 26-825)
T3 sequence: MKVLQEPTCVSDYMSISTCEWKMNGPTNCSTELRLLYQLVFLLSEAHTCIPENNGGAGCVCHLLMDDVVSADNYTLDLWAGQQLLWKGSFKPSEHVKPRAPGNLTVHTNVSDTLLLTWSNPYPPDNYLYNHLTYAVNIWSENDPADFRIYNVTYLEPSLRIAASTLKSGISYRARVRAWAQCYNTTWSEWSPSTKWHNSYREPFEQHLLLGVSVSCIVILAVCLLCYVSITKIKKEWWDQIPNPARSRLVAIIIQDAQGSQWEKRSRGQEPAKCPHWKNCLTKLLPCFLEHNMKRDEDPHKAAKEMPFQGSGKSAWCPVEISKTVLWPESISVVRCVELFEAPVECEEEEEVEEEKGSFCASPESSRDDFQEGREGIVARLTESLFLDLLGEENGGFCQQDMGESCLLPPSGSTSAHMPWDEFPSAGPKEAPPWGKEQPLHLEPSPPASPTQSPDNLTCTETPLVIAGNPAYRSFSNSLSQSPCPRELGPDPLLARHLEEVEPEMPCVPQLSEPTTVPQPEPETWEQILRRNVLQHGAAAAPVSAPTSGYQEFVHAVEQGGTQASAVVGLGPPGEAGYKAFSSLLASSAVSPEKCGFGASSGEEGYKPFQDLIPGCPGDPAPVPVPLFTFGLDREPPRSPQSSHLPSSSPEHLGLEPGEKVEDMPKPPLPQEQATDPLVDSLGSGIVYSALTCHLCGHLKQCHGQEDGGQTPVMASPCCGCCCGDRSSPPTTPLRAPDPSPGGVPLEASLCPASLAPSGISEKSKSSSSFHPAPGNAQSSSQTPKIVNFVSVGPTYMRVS

B1: Construct 9 (mAb418) (antibody, IgG4, V domains shown)
VH: EVQLVESGGGLEQPGGSLRLSCAGSGFTFTDFAMTWVRQAPGKGLEWVSSISGSGGNIYYADSVKGRFTISRDNSKNTLYLQMNSLRAEDTAVYYCAKDRLSVTVRPRYYGLDVWGQGTTVTVSS
VL: DIVMTQSPLSLPVTPGEPASISCRSSQSLLYSIGKNYVDWYLQKSGQSPQLLIYLGNNRATGVPDRFSGSGSGTDFTLKISRVEAEDVGFYYCMQALGSPYTFGQGTKLEIK
notes: VH/VL only
B2: Construct 12 (mAb421) (antibody, IgG4, V domains shown)
VH: B1 VH with T30R, V103K, V105I
VL: B1 VL with L29V, K35Y, N58K, T61S, A96S, G98T
notes: VH/VL only
B3: Construct 20 (mAb428) (antibody, IgG4, V domains shown)
VH: B1 VH with T30R, G56D, I58T, V103I
VL: B1 VL with R24T, K35Y, N58K, T61S, A96S, G98Q, S99T, T102V
notes: VH/VL only
B4: Construct 17 (mAb425) (antibody, IgG4, V domains shown)
VH: B1 VH with T30R, G56S, N57S, I58T
VL: B1 VL with R24T, S25A, K35Y, N57S, N58K, T61S, L97Y, G98N
notes: VH/VL only
B5: Construct 16 (mAb424) (antibody, IgG4, V domains shown)
VH: B1 VH with T30R, D31T, F32Y, G56D, V105I
VL: B1 VL with R24T, S25A, K35Y, N58K, T61S, A96S, G98T
notes: VH/VL only
B6: Construct 11 (mAb420) (antibody, IgG4, V domains shown)
VH: B1 VH with T30R, S54D, G56S, I58T, V103K, V105I
VL: B1 VL with L29V, K35Y, N58K, T61S, A96S, G98Q, S99T
notes: VH/VL only
B7: Construct 19 (mAb427) (antibody, IgG4, V domains shown)
VH: B1 VH with T30R, D31T, F32Y, G56D, I58T, L101V, V103I, V105I
VL: B1 VL with R24T, K35Y, N58K, T61S
notes: VH/VL only
B8: Construct 22 (mAb430) (antibody, IgG4, V domains shown)
VH: B1 VH with T30R, G56S, N57S, I58T
VL: B1 VL with L29V, K35Y, N58K, T61S, A96S, G98T
notes: VH/VL only
B9: Construct 10 (mAb419) (antibody, IgG4, V domains shown)
VH: B1 VH with T30R, S54D, G56S, I58T, V103K, V105I
VL: B1 VL with K35Y, N58K, T61S
notes: VH/VL only
B10: Construct 18 (mAb426) (antibody, IgG4, V domains shown)
VH: B1 VH with T30R, G56D, I58T, V103K, V105I
VL: B1 VL with R24T, N58K, T61S, A96S, G98T
notes: VH/VL only
B11: Construct 21 (mAb429) (antibody, IgG4, V domains shown)
VH: B1 VH with T30R, D31T, F32Y, L101V, V103I, T104Y
VL: B1 VL with R24T, S25A, K35Y, N57S, N58K, T61S, A96S, G98T
notes: VH/VL only

The binders below were run against T1, human IL-4Rα (assay: SPR, Carterra LSA;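 further: antibodies captured on an anti-human Fc sensor chip, antigen injected at several concentrations, association and dissociation rates fitted with a 1:1 Langmuir model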).

Row | KD Relative to Dupilumab | Kd [nM] | Binder
1 | 0.76 | 0.00862 | B1
2 | 1.91 | 0.0215 | B2
3 | 1.41 | 0.0159 | B3
4 | 1.49 | 0.0169 | B4
5 | 1.4 | 0.0158 | B5
6 | 1.17 | 0.0132 | B6
7 | 3.19 | 0.036 | B7
8 | 0.77 | 0.00866 | B8
9 | 1.1 | 0.0125 | B9
10 | 2.65 | 0.03 | B10
11 | 0.76 | 0.00857 | B11

Biological target: T2, cynomolgus monkey IL-4Rα
Experiment: SPR, Carterra LSA;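 further: antibodies captured on an anti-human Fc sensor chip, antigen injected at several concentrations, association and dissociation rates fitted with a 1:1 Langmuir model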

Row | KD Relative to Dupilumab | Kd [nM] | Binder
12 | 0.36 | 228 | B1
13 | 0.02 | 15.1 | B2
14 | 0.13 | 80.8 | B3
15 | 0.09 | 58.3 | B4
16 | 0.14 | 89.3 | B5
17 | 0.15 | 92.2 | B6
18 | 0.08 | 50.2 | B7
19 | 0.05 | 28.7 | B8
20 | 0.18 | 114 | B9
21 | 0.09 | 58 | B10
22 | 0.02 | 14.4 | B11

The binders below were run against T3, hIL-4Rα on cells (assay: cell-based or functional assay).

Row | Relative Inhibition of IL-4 induced pSTAT6 IC50 | Relative Inhibition of IL-13 induced pSTAT6 IC50 | Binder
23 | 0.761 relative to dupilumab | 1.31 relative to dupilumab | B1
24 | 0.457 relative to dupilumab | 0.672 relative to dupilumab | B2
25 | 1.28 relative to dupilumab | 1.86 relative to dupilumab | B3
26 | 0.876 relative to dupilumab | 0.863 relative to dupilumab | B4
27 | 0.825 relative to dupilumab | 1.41 relative to dupilumab | B5
28 | 0.638 relative to dupilumab | 0.924 relative to dupilumab | B6
29 | 0.844 relative to dupilumab | 0.885 relative to dupilumab | B7
30 | 0.749 relative to dupilumab | 0.612 relative to dupilumab | B8
31 | 0.599 relative to dupilumab | 1.38 relative to dupilumab | B9
32 | 0.517 relative to dupilumab | 0.446 relative to dupilumab | B10
33 | 0.305 relative to dupilumab | 0.447 relative to dupilumab | B11

Biological target: T3, hIL-4Rα on cells
Experiment: cell-based or functional assay
Remark: another data set of the same source

Row | Relative Inhibition of IL-4 induced TARC IC50 | Relative Inhibition of IL-13 induced TARC IC50 | Binder
34 | 0.593 relative to dupilumab | 0.942 relative to dupilumab | B1
35 | 0.38 relative to dupilumab | 0.521 relative to dupilumab | B2
36 | 3.63 relative to dupilumab | 1.83 relative to dupilumab | B3
37 | 0.491 relative to dupilumab | 0.789 relative to dupilumab | B4
38 | 1.63 relative to dupilumab | 1.03 relative to dupilumab | B5
39 | 0.609 relative to dupilumab | 0.877 relative to dupilumab | B6
40 | 0.756 relative to dupilumab | 0.834 relative to dupilumab | B7
41 | 0.488 relative to dupilumab | 0.535 relative to dupilumab | B8
42 | 0.556 relative to dupilumab | 0.856 relative to dupilumab | B9
43 | 0.407 relative to dupilumab | 0.447 relative to dupilumab | B10
44 | 0.342 relative to dupilumab | 0.313 relative to dupilumab | B11

Biological target: T3, hIL-4Rα on cells
Experiment: cell-based or functional assay
Remark: another data set of the same source

Row | Relative Inhibition of IL-4 induced TF-1 Proliferation IC50 | Relative Inhibition of IL-13 induced TF-1 Proliferation IC50 | Binder
45 | 0.503 relative to dupilumab | 1.34 relative to dupilumab | B1
46 | 0.526 relative to dupilumab | 0.87 relative to dupilumab | B2
47 | 1.12 relative to dupilumab | 1.38 relative to dupilumab | B3
48 | 0.729 relative to dupilumab | 0.844 relative to dupilumab | B4
49 | 1.04 relative to dupilumab | 1.44 relative to dupilumab | B5
50 | 0.455 relative to dupilumab | 1.72 relative to dupilumab | B6
51 | 0.835 relative to dupilumab | 0.55 relative to dupilumab | B7
52 | 0.746 relative to dupilumab | 0.495 relative to dupilumab | B8
53 | 0.431 relative to dupilumab | 1.39 relative to dupilumab | B9
54 | 0.626 relative to dupilumab | 0.606 relative to dupilumab | B10
55 | 0.509 relative to dupilumab | 0.498 relative to dupilumab | B11

Each binder was assayed against T3, hIL-4Rα on cells (assay: FACS on HEK293 cells, competitor biotin-hIL-4;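 further: HEK293 cells stably co-expressing hIL-13Rα and hIL-4Rα, stained for 1 h at 4 °C, read-out as mean fluorescence intensity by flow cytometry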).

Row | Relative Blockade of IL-4 Binding IC50 | Binder
56 | 0.757 relative to dupilumab | B1
57 | 1.07 relative to dupilumab | B2
58 | 1.44 relative to dupilumab | B3
59 | 1.11 relative to dupilumab | B4
60 | 0.895 relative to dupilumab | B5
61 | 0.977 relative to dupilumab | B6
62 | 0.867 relative to dupilumab | B7
63 | 0.829 relative to dupilumab | B8
64 | 0.992 relative to dupilumab | B9
65 | 0.85 relative to dupilumab | B10
66 | 0.749 relative to dupilumab | B11

What follows are binders tested against T3, hIL-4Rα on cells (assay: FACS on HEK293 cells, competitor biotin-hIL-13;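 further: stably transduced cells co-expressing both receptor chains, stained cold, with cell-bound signal read as mean fluorescence intensity by flow cytometry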).

Row | Relative Blockade of IL-13 Binding IC50 | Binder
67 | 0.911 relative to dupilumab | B1
68 | 0.921 relative to dupilumab | B2
69 | 1.14 relative to dupilumab | B3
70 | 1.17 relative to dupilumab | B4
71 | 0.904 relative to dupilumab | B5
72 | 0.928 relative to dupilumab | B6
73 | 1.02 relative to dupilumab | B7
74 | 0.785 relative to dupilumab | B8
75 | 0.922 relative to dupilumab | B9
76 | 0.813 relative to dupilumab | B10
77 | 0.706 relative to dupilumab | B11
